Experimental findings from the supplement of paper PMC10567573 are described below.

B1: USP39 (parent)
chain: FVEKNPTIVNFPITNVDLREYLSE
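Further: lentivirally expressed fusions sorted by FACS into six bins by GFP to DsRed ratio, PSI derived from sequencing read proportions per bin multiplied by bin number.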

The data set covers variants of B1. As to the kind of experiment: protein stability index of a GFP-peptide fusion (GPS, HEK-293T) (PSI 1-6); higher = more stable. The note with it: c terminus: a fixed tail appended.
Turning to FVEKNPYIVNFPITNVDLREYLSE [T7Y], the protein stability index was determined as 3.42.
In the case of FVEKNPSIVNFPITNVDLREYLSE [T7S], the protein stability index amounted to 1.5.
For the variant FVEKNPRIVNFPITNVDLREYLSE [T7R], the protein stability index is 1.98.
As to FVEKNPTIVNFPETNVDLREYLSE [I13E], the protein stability index was 2.4.
Consider FVEKNPTIVNFPSTNVDLREYLSE [I13S], for which the protein stability index turned out to be 2.59.
Consider FVEKNPTIVNFPRTNVDLREYLSE [I13R], for which the protein stability index worked out at 1.98.
Consider FVEKNPTIVNFPFTNVDLREYLSE [I13F], for which the protein stability index amounted to 2.08.
The figure for FVEKNPTIVNFPGTNVDLREYLSE [I13G] is 1.71; for FVEKNPTIVNFPQTNVDLREYLSE [I13Q] it is 2.22; for FVEKNPTIVNFPTTNVDLREYLSE [I13T] it is 1.36.
Consider FVEKNPTIVNFPNTNVDLREYLSE [I13N], for which the protein stability index worked out at 2.42.
Regarding FVEKNPTIVNFPLTNVDLREYLSE [I13L], the protein stability index was found to be 1.67.
In the case of FVEKNPTIVNFPMTNVDLREYLSE [I13M] it was 2.6; in that of FVEKNPTIVNFPATNVDLREYLSE [I13A], 2.23.
For FVEKNPTIVNFPHTNVDLREYLSE [I13H], the protein stability index amounted to 1.81.
As to FVEKNPTIVNFPYTNVDLREYLSE [I13Y], the protein stability index amounted to 1.73.
In the case of FVEKNPTIVNFPCTNVDLREYLSE [I13C] it was 1.77; in that of FVEKNPTIVNFPKTNVDLREYLSE [I13K], 2.25; in that of FVEKNPTIVNFPVTNVDLREYLSE [I13V], 2.03.
In the case of FVEKNPTIVNFPDTNVDLREYLSE [I13D] it was 2.17; in that of FVEKNPTIVNFPPTNVDLREYLSE [I13P], 1.91; in that of FVEKNPTIVNFPITNVKLREYLSE [D17K], 1.11.
With FVEKNPTIVNFPITNVQLREYLSE [D17Q], the protein stability index turned out to be 1.92.
In the case of FVEKNPTIVNFPITNVWLREYLSE [D17W] it was 1.4.
FVEKNPTIVNFPITNVYLREYLSE [D17Y]: the protein stability index is 1.84.
In the case of FVEKNPTIVNFPITNVELREYLSE [D17E] it was 1.95; in that of FVEKNPTIVNFPITNVTLREYLSE [D17T], 1.35.
In the case of FVEKNPTIVNFPITNVVLREYLSE [D17V] it was 2.64; in that of FVEKNPTIVNFPITNVMLREYLSE [D17M], 1.62.
In the case of FVEKNPTIVNFPITNVGLREYLSE [D17G] it was 2.02; in that of FVEKNPTIVNFPITNVRLREYLSE [D17R], 2.25; in that of FVEKNPTIVNFPITNVFLREYLSE [D17F], 2.63.
Consider FVEKNPTIVNFPITNVHLREYLSE [D17H], for which the protein stability index worked out at 2.25.
The figure for FVEKNPTIVNFPITNVLLREYLSE [D17L] is 1.28.
In the case of FVEKNPTIVNFPITNVILREYLSE [D17I] it was 3.11; in that of FVEKNPTIVNFPITNVSLREYLSE [D17S], 2.28; in that of FVEKNPTIVNFPITNVPLREYLSE [D17P], 1.34.
As for FVEKNPTIVNFPITNVALREYLSE [D17A], the protein stability index amounted to 2.46.
In the case of FVEKNPTIVNFPITNVNLREYLSE [D17N] it was 1.55; in that of FVEKNPTIVNFPITNVCLREYLSE [D17C], 2.08.
Consider FVEKNPTIVRFPITNVDLREYLSE [N10R], for which the protein stability index worked out at 1.8.
With FVEKNPTIVTFPITNVDLREYLSE [N10T], the protein stability index worked out at 1.77.
The figure for FVEKNPTIVLFPITNVDLREYLSE [N10L] is 3.29; for FVEKNPTIVQFPITNVDLREYLSE [N10Q] it is 2.3; for FVEKNPTIVDFPITNVDLREYLSE [N10D] it is 2.14.
In the case of FVEKNPTIVEFPITNVDLREYLSE [N10E] it was 1.99; in that of FVEKNPTIVKFPITNVDLREYLSE [N10K], 2.48; in that of FVEKNPTIVIFPITNVDLREYLSE [N10I], 3.79.
The figure for FVEKNPTIVSFPITNVDLREYLSE [N10S] is 1.76; for FVEKNPTIVWFPITNVDLREYLSE [N10W] it is 2.08.
As to FVEKNPTIVFFPITNVDLREYLSE [N10F], the protein stability index stood at 1.57.
The figure for FVEKNPTIVHFPITNVDLREYLSE [N10H] is 1.75; for FVEKNPTIVPFPITNVDLREYLSE [N10P] it is 2.42.
As to FVEKNPTIVVFPITNVDLREYLSE [N10V], the protein stability index came to 2.29.
For FVEKNPTIVGFPITNVDLREYLSE [N10G], the protein stability index stood at 2.93.
In the case of FVEKNPTIVAFPITNVDLREYLSE [N10A] it was 2.02.
The figure for FVEKNPTIYNFPITNVDLREYLSE [V9Y] is 3.09; for FVEKNPTIPNFPITNVDLREYLSE [V9P] it is 1.89.
The figure for FVEKNPTITNFPITNVDLREYLSE [V9T] is 2.36; for FVEKNPTIRNFPITNVDLREYLSE [V9R] it is 2.16; for FVEKNPTISNFPITNVDLREYLSE [V9S] it is 1.8.
In the case of FVEKNPTIDNFPITNVDLREYLSE [V9D], the protein stability index turned out to be 2.27.
The figure for FVEKNPTIKNFPITNVDLREYLSE [V9K] is 2.38; for FVEKNPTICNFPITNVDLREYLSE [V9C] it is 1.5; for FVEKNPTIQNFPITNVDLREYLSE [V9Q] it is 2.03.
With FVEKNPTIANFPITNVDLREYLSE [V9A], the protein stability index came out at 2.66.
On to FVEKNPTIINFPITNVDLREYLSE [V9I], for which the protein stability index was determined as 2.23.
The figure for FVEKNPTIHNFPITNVDLREYLSE [V9H] is 1.8; for FVEKNPTILNFPITNVDLREYLSE [V9L] it is 1.63; for FVEKNPTINNFPITNVDLREYLSE [V9N] it is 1.98.
For the variant FVEKNPTIGNFPITNVDLREYLSE [V9G], the protein stability index is 2.03.
For FVEKNPTIMNFPITNVDLREYLSE [V9M], the protein stability index is 1.63.
In the case of FVEKNPTIFNFPITNVDLREYLSE [V9F], the protein stability index is 1.73.
In the case of FVEKNPTIENFPITNVDLREYLSE [V9E] it was 2.91; in that of FVEKNPTIVNFPITNVDCREYLSE [L18C], 2.64.
In the case of FVEKNPTIVNFPITNVDEREYLSE [L18E] it was 2.05; in that of FVEKNPTIVNFPITNVDFREYLSE [L18F], 2.06; in that of FVEKNPTIVNFPITNVDGREYLSE [L18G], 2.1.
In the case of FVEKNPTIVNFPITNVDAREYLSE [L18A] it was 1.69; in that of FVEKNPTIVNFPITNVDDREYLSE [L18D], 2.21.
Turning to FVEKNPTIVNFPITNYDLREYLSE [V16Y], the protein stability index is 1.62.
FVEKNPTIVNFPITNMDLREYLSE [V16M]: the protein stability index amounted to 2.37.
Turning to FVEKNPTIVNFPITNIDLREYLSE [V16I], the protein stability index was 1.6.
The figure for FVEKNPTIVNFPITNWDLREYLSE [V16W] is 1.52; for FVEKNPTIVNFPITNDDLREYLSE [V16D] it is 1.89; for FVEKNPTIVNFPITNLDLREYLSE [V16L] it is 2.05.
In the case of FVEKNPTIVNFPITNTDLREYLSE [V16T] it was 2.94; in that of FVEKNPTIVNFPITNADLREYLSE [V16A], 2.02; in that of FVEKNPTIVNFPITNQDLREYLSE [V16Q], 1.99.
Regarding FVEKNPTIVNFPITNKDLREYLSE [V16K], the protein stability index worked out at 1.74.
The figure for FVEKNPTIVNFPITNCDLREYLSE [V16C] is 1.41; for FVEKNPTIVNFPITNPDLREYLSE [V16P] it is 2.29; for FVEKNPTIVNFPITNGDLREYLSE [V16G] it is 1.89.
The figure for FVEKNPTIVNFPITNRDLREYLSE [V16R] is 2.78.
